Measured values published in patent US20190248902A1 (published 2019).

T1: human ASGR-1 (wild type) (human, UniProt P07306 1-291)
T1 construct: also called wt ASGR1; huASGR-1
T1 sequence: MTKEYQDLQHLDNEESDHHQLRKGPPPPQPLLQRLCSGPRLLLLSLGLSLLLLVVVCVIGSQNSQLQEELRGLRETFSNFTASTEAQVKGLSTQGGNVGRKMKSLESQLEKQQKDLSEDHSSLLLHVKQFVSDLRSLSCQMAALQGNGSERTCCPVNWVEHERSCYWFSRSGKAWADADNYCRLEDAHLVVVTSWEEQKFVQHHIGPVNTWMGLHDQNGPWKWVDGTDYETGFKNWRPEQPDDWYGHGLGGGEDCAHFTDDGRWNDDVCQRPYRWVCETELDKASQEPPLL

T2: human ASGR-1 mutant construct H203 (human, UniProt P07306 1-291)
T2 construct: Arg/Glu scanning: non-arginine residues were changed to arginine; Transiently expressed on CHO-S cells
T2 sequence: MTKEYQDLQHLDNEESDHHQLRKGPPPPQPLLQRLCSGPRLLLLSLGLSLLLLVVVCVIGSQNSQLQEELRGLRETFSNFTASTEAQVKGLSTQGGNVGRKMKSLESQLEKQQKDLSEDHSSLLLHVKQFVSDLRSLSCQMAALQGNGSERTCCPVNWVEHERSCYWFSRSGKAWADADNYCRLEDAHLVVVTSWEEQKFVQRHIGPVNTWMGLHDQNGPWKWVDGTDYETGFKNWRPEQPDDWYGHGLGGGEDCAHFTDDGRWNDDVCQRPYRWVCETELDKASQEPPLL


Assays:
human ASGR-1 (wild type) [1] = molecular target: T1, human ASGR-1 (wild type); assay: FACS ratio: 65C12 geomean / this mAb geomean
Protocol: (§1) Mutant hASGR-1 variants were constructed such that non-arginine residues were changed to arginine and where wild type arginine residues were mutated to glutamic acid. Each mutant hASGR-1 sequence was then cloned into a mammalian expression vector and used to transiently transfect CHOs cells. The ability of human ASGR-1-specific, ligand competing antibodies to bind to the mutant hASGR-1 proteins was assessed by FACS as described above.
(§2) Antibodies were tested for binding to the individual mutant and wild type ASGR-1 constructs using normalized antibody concentrations (5 ug/ml). CHO—S cells transiently expressing the appropriate mutated or non-mutated antigen of interest were mixed with antibody sample or controls, incubated for 1 hour at 4° C., and then washed twice. Cells with bound antibody were then incubated with Alexa Fluor® 647 IgG Fc fragment-specific detection antibody and 7-AAD viability stain for 15 minutes at 4° C., washed once and resuspended in FACS buffer. Samples were analyzed using a BD Accuri™ Flow Cytometer and an Intellicyt HyperCyt Autosampler. As a negative control, supernatants and controls were also screened against CHO—S cells transfected with empty parental vector (referred to as mock). […] Because mutant hASGR-1 expression levels varied relative to each other, sample binding data for each construct was normalized for expression by dividing the binding data from an antibody not affected by the mutations (e.g., 65C12) by the binding values of each test antibody on a given mutant construct. Also, because the antibody binding affinities varied amongst the samples, the expression corrected data (above) was further normalized by comparing test antibody binding on each mutant construct to wild type hASGR-1. Identification of specific mutations that affected test antibody binding was performed by an interquartile range (IQR) analysis to determine statistical outliers. A mutation was identified as a “hit” if the calculated values were >3× the IQR (above the 3rd quartile/upper fence) for a given mutant construct.

[2] = molecular target: T2, human ASGR-1 mutant construct H203; assay: FACS ratio: 65C12 geomean / this mAb geomean
Protocol: as §1, §2

human ASGR-1 (wild type) [3] = molecular target: T1, human ASGR-1 (wild type); assay: FACS, transfected CHO-S cells, mAb 5 ug/ml
Protocol: (§3) The ability of human ASGR-1-specific, ligand competing antibodies to bind to the mutant hASGR-1 proteins was assessed by FACS as described above.
(§4) Antibodies were tested for binding to the individual mutant and wild type ASGR-1 constructs using normalized antibody concentrations (5 ug/ml). CHO—S cells transiently expressing the appropriate mutated or non-mutated antigen of interest were mixed with antibody sample or controls, incubated for 1 hour at 4° C., and then washed twice. Cells with bound antibody were then incubated with Alexa Fluor® 647 IgG Fc fragment-specific detection antibody and 7-AAD viability stain for 15 minutes at 4° C., washed once and resuspended in FACS buffer. Samples were analyzed using a BD Accuri™ Flow Cytometer and an Intellicyt HyperCyt Autosampler. As a negative control, supernatants and controls were also screened against CHO—S cells transfected with empty parental vector (referred to as mock). […] Because mutant hASGR-1 expression levels varied relative to each other, sample binding data for each construct was normalized for expression by dividing the binding data from an antibody not affected by the mutations (e.g., 65C12) by the binding values of each test antibody on a given mutant construct. Also, because the antibody binding affinities varied amongst the samples, the expression corrected data (above) was further normalized by comparing test antibody binding on each mutant construct to wild type hASGR-1. Identification of specific mutations that affected test antibody binding was performed by an interquartile range (IQR) analysis to determine statistical outliers. A mutation was identified as a “hit” if the calculated values were >3× the IQR (above the 3rd quartile/upper fence) for a given mutant construct. Although IQR analysis was used here to determine signifance and identify hits, one skilled in the art will recognize that a number of methods could be employed in order to normalize the data (eg. using epitope-tagged constructs or other ASGR-1-binding antibodies directed against non-CBD epitopes).

[4] = molecular target: T2, human ASGR-1 mutant construct H203; assay: FACS, transfected CHO-S cells, mAb 5 ug/ml
Protocol: as §3, §4

[5] = molecular target: T2, human ASGR-1 mutant construct H203; assay: FACS ratio: H203 normalized value / wt normalized value
Protocol: as §3, §4

| Expression Normalization to mAb 65C12 (human ASGR-1 (wild type) [1]) | Expression Normalization to mAb 65C12 [2] | FACS Binding Geomean (human ASGR-1 (wild type) [3]) | FACS Binding Geomean [4] | Normalization to wt ASGR1 Binding [5] | Binder |
| --- | --- | --- | --- | --- | --- |
| 2.32 | 1.79 | 24100 | 14400 | 0.769 | 146B6 (antibody, V domains shown, mAb) VH: EVQLVESGGGLVQPGGSLRLSCAASGFTFSSYNMNWVRQAPGKGLEWVSYISRSSNTKHYADSVKGRFTISRDNAKNSLYLQMDSLRDEDTAVYYCARDRSGSYGYFYYYGLDVWGQGTTVTVSS VL: not shown |
| 3.72 | 2.01 | 15100 | 12800 | 0.539 | 213B3 (antibody, V domains shown, mAb) VH: QVQLVESGGGVVQPGRSLRLSCAASGFTFSSYGMHWVRQAPGKGLEWVAVIWYDGSNKNYADSVKGRFTISRDNSKNTLYLQMNSLRAEDTAVYYCARDRTVGYDGFDIWGQGTMVTVSS VL: DIQMTQSPSSLSASVGDRVTITCRASQGIGKYLAWFQQKPGKAPKSLISAASSVLSGVPSKFSGSGSGTDFTLTISSLQPEDFATYYCQKYDTYPFTFGPGTKVDIK |
| 1.4 | 1.2 | 40200 | 21500 | 0.858 | 147E9 (antibody, V domains shown, mAb) VH: EVQLVESGGGLVQPGGSLRLSCAASGFTFSSYSMNWVRQAPGKGLEWVSSISGRNTTIYYADSVKGRFTISRDNAKNSLYLQMNSLRDEDTAVYYCSRDRGSCWGQGTLVTVSS VL: DIQMTQSPSSLSASVGDRVTITCRASQDINNYLAWFQQKPGKAPKSLIVAASSLQSGVPSKFSGSGSGTDFTLTISSLQPEDFATYYCQQYNSYPLTFGGGTKVEIK |
| 1.7 | 1.56 | 33000 | 16500 | 0.917 | 85F7 (antibody, V domains shown, mAb) VH: QVQLQQWGAGLLKPSEPLSLTCAVYGGSFSGPYWSWIRQPPGKGLEWIGEINHSGSTNYNPSLKSRVTISVDTSKNQFSLKLTSVTAADTAVYYCARDYGGLDVWGQGTTVTVSS VL: EPVLTQSPGTLSLSPGERATLSCRASQNIYSNYLAWYQQKPGQAPRLLIYGASSRATGIPDRFSGSGSGTDFTLTISRLEPEDFAVYCCQQYESSPWTFGQGTKVEIK |
| 1.66 | 1.26 | 33900 | 20400 | 0.762 | 56E3 (antibody, V domains shown, mAb) VH: QVQLVQSGAEVKKPGASVKVSCKASGYTFNSYGFSWVRQAPGQGLEWMGWISAYNGNTKEAQKFQGRVTMTTDTSTSTAYMELRSLRADDTAVYYCARHDFWSGYYKGMDVWGQGTTVTVSS VL: not shown |
| 1.37 | 1.27 | 41000 | 20300 | 0.928 | 65D5 (antibody, V domains shown, mAb) VH: QVQLVQSGAEVKKPGASVKVSCKASGYTFPSYGISWVRQAPGQGLEWMGWISAYSGNTNYAQKLQGRVTMTTDTSTSTAYMELRSLRSDDTAVYFCARGEAVAVFDPWGQGTLVTVSS VL: DIQMTQSPSSLSASVGDRVTITCRASQDINNYLAWFQQKPGKAPRSLIYAASSLHSGVPSQFSASGSGSDFTLTISSLQPEDFATYYCPLYKSYPLTFGPGTKVDIK |
| 1.79 | 1.3 | 31300 | 19800 | 0.725 | 60C12 (antibody, V domains shown, mAb) VH: QVQLVESGGGVVQPGRSLRLSCAASGFTFSSYGMHWVRQAPGKGLEWVAVIWYDGSNKYYVDSVKGRFTISRDNSKNTLYLQMNSLRAEDTAVYYCARRYSRSWTGGMDVWGQGTTVTVSS VL: DIVMTQTPLSLSVTPGQPASISCKSSQSLLHSEGKTYLYWYLQKPGQPPQFLIYEVSNRFSGVPDRFSGSGSGTDFTLKISRVEAEDVGIYYCMQSIKYPLTFGGGTKVEIK |
| 1.97 | 1.86 | 28500 | 13900 | 0.945 | 173C11 (antibody, V domains shown, mAb) VH: QVQLVESGGGVVQPGRSLRLSCAASGFTFSSYGIHWVRQAPGKGLEWVALIFYDGSNKYYADSVKGRFTISRDNSKNTLYLHMSSLRAEDTAVYYCARRYSSSWSGGMDVWGQGTTVTVSS VL: DIVMTQTPLSLSVTPGQPASISCKSSQSLLHSEGKTYLYWYLQKPGQPPQLLIYEVSHRFSGVPDRFSGSGSGTDFTLKISRVEAEDVGVYYCMQSIQLLTFGGGTKVEIK |
| 1.67 | 1.74 | 33600 | 14800 | 1.04 | 175F4 (antibody, V domains shown, mAb) VH: QVQLQQSGPGLVKPSQTLSLTCAISGDSVSSNSAAWNWIRQSPSRGLEWLGRTYYRSKWYNAYPVSMESRISINPDTSKNQFSLQLNSVTPEDTAVYYCARDKAAGRNDFYYYGMDVWGQGTTVTVSS VL: QSALTQPASVSGSPGQSITISCTGTSSDVGRFNLVSWYQQHPGYAPKLMIYEVSKRPSGVSNRFSGSKSGNTASLTISGLQAEDEADYYCCSYAGSSTYVVFGGGTKLTVL |
| 1.4 | 1.28 | 40000 | 20100 | 0.911 | 61A1 (antibody, V domains shown, mAb) VH: QVQLQESGPGLVKPSETLSLTCTVSGGSISSHFWSWIRQPAGKGLEWIGRIYIRGSTNYNPSLKSRVTMSVDTSKNQFSLKLSSVTAADTAVYYCAREGKTGGVSYFDYWGQGTLVTVSS VL: DIQMTQSPSSLSASVGDRVTITCRASQSISSYLNWYQQKPGKAPKLLIYAASSLQSGVPSRFSGSGSGTDFTLTISSLQPEDFAPYYCQQSYNISFTFGPGTKVDIK |
| 3.3 | 2.72 | 17000 | 9460 | 0.826 | 199A7 (antibody, V domains shown, mAb) VH: QVQLVESGGGVVQPGRSLRLSCAASGFTFSNYGMHWVRQAPGKGLEWVAIIWFDGSNKYYADSVKGRFTISRDNSKNTLFLQMSSLRAEDTAVYYCAREWLQFRYYYGMDVWGQGTTVTVSS VL: DIQMTQSPSSLSASVGDRVTITCRASQGIRKDLGWYQQKPGKAPKRLIYAASSLQSGVPSRFSGSGSGTEFTLTISSLQPEDFATYVCLQHYRYPFTFGPGTKVDFK |
